Assay results: patent US20150368311A1 (Sanofi, published 2015)
Non-standard residues stand in square brackets, D forms with d. No end group written: not given here. Ala(4-thiazolyl) = N[C@@H](Cc1cscn1)C(=O)O; 1Nal = N[C@@H](Cc1cccc2ccccc12)C(=O)O; Phg = N[C@H](C(=O)O)c1ccccc1; Nle = CCCC[C@H](N)C(=O)O

Experiments:
Test in all cases: cell-based or functional assay
[1] = target: T1, human GLP-1 receptor (human, UniProt P43220 24-463)
[2] = target: T2, human glucagon receptor (human, UniProt P47871 26-477)
T2 sequence (P47871 26-477): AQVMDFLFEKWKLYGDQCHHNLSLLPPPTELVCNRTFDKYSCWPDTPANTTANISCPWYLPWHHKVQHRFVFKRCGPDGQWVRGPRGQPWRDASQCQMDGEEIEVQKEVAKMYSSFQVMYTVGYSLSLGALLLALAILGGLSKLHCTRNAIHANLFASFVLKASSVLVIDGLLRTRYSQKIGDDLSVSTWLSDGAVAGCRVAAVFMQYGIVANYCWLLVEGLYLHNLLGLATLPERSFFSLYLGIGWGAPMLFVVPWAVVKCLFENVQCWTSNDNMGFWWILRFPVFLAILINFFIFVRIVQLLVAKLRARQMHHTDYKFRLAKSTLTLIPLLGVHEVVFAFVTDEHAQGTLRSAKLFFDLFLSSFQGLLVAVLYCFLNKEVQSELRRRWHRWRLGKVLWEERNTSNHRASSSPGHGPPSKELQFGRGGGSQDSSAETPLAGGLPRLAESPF

[3] = target: T1, human GLP-1 receptor; remark: listed apart in the source
[4] = target: T2, human glucagon receptor; remark: listed apart in the source

Binder	EC50 hGLP-1 R [pM], cAMP formation [1]	EC50 hGLUC R [pM], cAMP formation [2]	EC50 hGLP-1R, cAMP formation [3]	EC50 hGlucagon-R, cAMP formation [4]
[Ala(4-thiazolyl)]SQGTFTSDLSKQ[Nle]ESRRAQEFIEWLLATGPESGAPPPS-OH (N-terminus assumed; SMILES CCCC[C@H](NC(=O)[C@H](CCC(N)=O)NC(=O)[C@H](CCCCN)NC(=O)[C@H](CO)NC(=O)[C@H](CC(C)C)NC(=O)[C@H](CC(=O)O)NC(=O)[C@H](CO)NC(=O)[C@@H](NC(=O)[C@H](Cc1ccccc1)NC(=O)[C@@H](NC(=O)CNC(=O)[C@H](CCC(N)=O)NC(=O)[C@H](CO)NC(=O)[C@@H](N)Cc1cscn1)[C@@H](C)O)[C@@H](C)O)C(=O)N[C@@H](CCC(=O)O)C(=O)N[C@@H](CO)C(=O)N[C@@H](CCCNC(=N)N)C(=O)N[C@@H](CCCNC(=N)N)C(=O)N[C@@H](C)C(=O)N[C@@H](CCC(N)=O)C(=O)N[C@@H](CCC(=O)O)C(=O)N[C@@H](Cc1ccccc1)C(=O)N[C@H](C(=O)N[C@@H](CCC(=O)O)C(=O)N[C@@H](Cc1c[nH]c2ccccc12)C(=O)N[C@@H](CC(C)C)C(=O)N[C@@H](CC(C)C)C(=O)N[C@@H](C)C(=O)N[C@H](C(=O)NCC(=O)N1CCC[C@H]1C(=O)N[C@@H](CCC(=O)O)C(=O)N[C@@H](CO)C(=O)NCC(=O)N[C@@H](C)C(=O)N1CCC[C@H]1C(=O)N1CCC[C@H]1C(=O)N1CCC[C@H]1C(=O)N[C@@H](CO)C(=O)O)[C@@H](C)O)[C@@H](C)CC) [SEQ ID NO: 16]	19700 pM	0.9 pM	19.7 nM	0.0009 nM
[Ala(4-thiazolyl)]SQGTFTSDLSKQ[Nle]ESRRAQDFIEWLLATGPESGAPPPS-OH (N-terminus assumed; SMILES CCCC[C@H](NC(=O)[C@H](CCC(N)=O)NC(=O)[C@H](CCCCN)NC(=O)[C@H](CO)NC(=O)[C@H](CC(C)C)NC(=O)[C@H](CC(=O)O)NC(=O)[C@H](CO)NC(=O)[C@@H](NC(=O)[C@H](Cc1ccccc1)NC(=O)[C@@H](NC(=O)CNC(=O)[C@H](CCC(N)=O)NC(=O)[C@H](CO)NC(=O)[C@@H](N)Cc1cscn1)[C@@H](C)O)[C@@H](C)O)C(=O)N[C@@H](CCC(=O)O)C(=O)N[C@@H](CO)C(=O)N[C@@H](CCCNC(=N)N)C(=O)N[C@@H](CCCNC(=N)N)C(=O)N[C@@H](C)C(=O)N[C@@H](CCC(N)=O)C(=O)N[C@@H](CC(=O)O)C(=O)N[C@@H](Cc1ccccc1)C(=O)N[C@H](C(=O)N[C@@H](CCC(=O)O)C(=O)N[C@@H](Cc1c[nH]c2ccccc12)C(=O)N[C@@H](CC(C)C)C(=O)N[C@@H](CC(C)C)C(=O)N[C@@H](C)C(=O)N[C@H](C(=O)NCC(=O)N1CCC[C@H]1C(=O)N[C@@H](CCC(=O)O)C(=O)N[C@@H](CO)C(=O)NCC(=O)N[C@@H](C)C(=O)N1CCC[C@H]1C(=O)N1CCC[C@H]1C(=O)N1CCC[C@H]1C(=O)N[C@@H](CO)C(=O)O)[C@@H](C)O)[C@@H](C)CC) [SEQ ID NO: 3]	44300 pM	1.8 pM	44.3 nM	0.0018 nM
[Ala(4-thiazolyl)]SQGTFTSD[1Nal]SKQLESRRAQEFIEWLLATGPESGAPPPS-OH (N-terminus assumed; SMILES CC[C@H](C)[C@H](NC(=O)[C@H](Cc1ccccc1)NC(=O)[C@H](CCC(=O)O)NC(=O)[C@H](CCC(N)=O)NC(=O)[C@H](C)NC(=O)[C@H](CCCNC(=N)N)NC(=O)[C@H](CCCNC(=N)N)NC(=O)[C@H](CO)NC(=O)[C@H](CCC(=O)O)NC(=O)[C@H](CC(C)C)NC(=O)[C@H](CCC(N)=O)NC(=O)[C@H](CCCCN)NC(=O)[C@H](CO)NC(=O)[C@H](Cc1cccc2ccccc12)NC(=O)[C@H](CC(=O)O)NC(=O)[C@H](CO)NC(=O)[C@@H](NC(=O)[C@H](Cc1ccccc1)NC(=O)[C@@H](NC(=O)CNC(=O)[C@H](CCC(N)=O)NC(=O)[C@H](CO)NC(=O)[C@@H](N)Cc1cscn1)[C@@H](C)O)[C@@H](C)O)C(=O)N[C@@H](CCC(=O)O)C(=O)N[C@@H](Cc1c[nH]c2ccccc12)C(=O)N[C@@H](CC(C)C)C(=O)N[C@@H](CC(C)C)C(=O)N[C@@H](C)C(=O)N[C@H](C(=O)NCC(=O)N1CCC[C@H]1C(=O)N[C@@H](CCC(=O)O)C(=O)N[C@@H](CO)C(=O)NCC(=O)N[C@@H](C)C(=O)N1CCC[C@H]1C(=O)N1CCC[C@H]1C(=O)N1CCC[C@H]1C(=O)N[C@@H](CO)C(=O)O)[C@@H](C)O) [SEQ ID NO: 11]	11700 pM	0.9 pM	11.7 nM	0.0009 nM
[Ala(4-thiazolyl)]SQGTFTSDLSKQLESRRAQEFIEWLLATGPESGAPPPS-OH (N-terminus assumed; SMILES CC[C@H](C)[C@H](NC(=O)[C@H](Cc1ccccc1)NC(=O)[C@H](CCC(=O)O)NC(=O)[C@H](CCC(N)=O)NC(=O)[C@H](C)NC(=O)[C@H](CCCNC(=N)N)NC(=O)[C@H](CCCNC(=N)N)NC(=O)[C@H](CO)NC(=O)[C@H](CCC(=O)O)NC(=O)[C@H](CC(C)C)NC(=O)[C@H](CCC(N)=O)NC(=O)[C@H](CCCCN)NC(=O)[C@H](CO)NC(=O)[C@H](CC(C)C)NC(=O)[C@H](CC(=O)O)NC(=O)[C@H](CO)NC(=O)[C@@H](NC(=O)[C@H](Cc1ccccc1)NC(=O)[C@@H](NC(=O)CNC(=O)[C@H](CCC(N)=O)NC(=O)[C@H](CO)NC(=O)[C@@H](N)Cc1cscn1)[C@@H](C)O)[C@@H](C)O)C(=O)N[C@@H](CCC(=O)O)C(=O)N[C@@H](Cc1c[nH]c2ccccc12)C(=O)N[C@@H](CC(C)C)C(=O)N[C@@H](CC(C)C)C(=O)N[C@@H](C)C(=O)N[C@H](C(=O)NCC(=O)N1CCC[C@H]1C(=O)N[C@@H](CCC(=O)O)C(=O)N[C@@H](CO)C(=O)NCC(=O)N[C@@H](C)C(=O)N1CCC[C@H]1C(=O)N1CCC[C@H]1C(=O)N1CCC[C@H]1C(=O)N[C@@H](CO)C(=O)O)[C@@H](C)O) [SEQ ID NO: 12]	20000 pM	1 pM	20 nM	0.001 nM
[Ala(4-thiazolyl)]SQGTFTSD[Phg]SKQLESRRAQEFIEWLLATGPESGAPPPS-OH (N-terminus assumed; SMILES CC[C@H](C)[C@H](NC(=O)[C@H](Cc1ccccc1)NC(=O)[C@H](CCC(=O)O)NC(=O)[C@H](CCC(N)=O)NC(=O)[C@H](C)NC(=O)[C@H](CCCNC(=N)N)NC(=O)[C@H](CCCNC(=N)N)NC(=O)[C@H](CO)NC(=O)[C@H](CCC(=O)O)NC(=O)[C@H](CC(C)C)NC(=O)[C@H](CCC(N)=O)NC(=O)[C@H](CCCCN)NC(=O)[C@H](CO)NC(=O)[C@@H](NC(=O)[C@H](CC(=O)O)NC(=O)[C@H](CO)NC(=O)[C@@H](NC(=O)[C@H](Cc1ccccc1)NC(=O)[C@@H](NC(=O)CNC(=O)[C@H](CCC(N)=O)NC(=O)[C@H](CO)NC(=O)[C@@H](N)Cc1cscn1)[C@@H](C)O)[C@@H](C)O)c1ccccc1)C(=O)N[C@@H](CCC(=O)O)C(=O)N[C@@H](Cc1c[nH]c2ccccc12)C(=O)N[C@@H](CC(C)C)C(=O)N[C@@H](CC(C)C)C(=O)N[C@@H](C)C(=O)N[C@H](C(=O)NCC(=O)N1CCC[C@H]1C(=O)N[C@@H](CCC(=O)O)C(=O)N[C@@H](CO)C(=O)NCC(=O)N[C@@H](C)C(=O)N1CCC[C@H]1C(=O)N1CCC[C@H]1C(=O)N1CCC[C@H]1C(=O)N[C@@H](CO)C(=O)O)[C@@H](C)O) [SEQ ID NO: 10]	45000 pM	6 pM	45 nM	0.006 nM
[Ala(4-thiazolyl)]SQGTFTSDLSKQLESRRAQDFIEWLLATGPESGAPPPS-OH (N-terminus assumed; SMILES CC[C@H](C)[C@H](NC(=O)[C@H](Cc1ccccc1)NC(=O)[C@H](CC(=O)O)NC(=O)[C@H](CCC(N)=O)NC(=O)[C@H](C)NC(=O)[C@H](CCCNC(=N)N)NC(=O)[C@H](CCCNC(=N)N)NC(=O)[C@H](CO)NC(=O)[C@H](CCC(=O)O)NC(=O)[C@H](CC(C)C)NC(=O)[C@H](CCC(N)=O)NC(=O)[C@H](CCCCN)NC(=O)[C@H](CO)NC(=O)[C@H](CC(C)C)NC(=O)[C@H](CC(=O)O)NC(=O)[C@H](CO)NC(=O)[C@@H](NC(=O)[C@H](Cc1ccccc1)NC(=O)[C@@H](NC(=O)CNC(=O)[C@H](CCC(N)=O)NC(=O)[C@H](CO)NC(=O)[C@@H](N)Cc1cscn1)[C@@H](C)O)[C@@H](C)O)C(=O)N[C@@H](CCC(=O)O)C(=O)N[C@@H](Cc1c[nH]c2ccccc12)C(=O)N[C@@H](CC(C)C)C(=O)N[C@@H](CC(C)C)C(=O)N[C@@H](C)C(=O)N[C@H](C(=O)NCC(=O)N1CCC[C@H]1C(=O)N[C@@H](CCC(=O)O)C(=O)N[C@@H](CO)C(=O)NCC(=O)N[C@@H](C)C(=O)N1CCC[C@H]1C(=O)N1CCC[C@H]1C(=O)N1CCC[C@H]1C(=O)N[C@@H](CO)C(=O)O)[C@@H](C)O) [SEQ ID NO: 15]	34500 pM	2.2 pM	34.5 nM	0.0022 nM
